Residue numbers refer to the chain shown, from its start.
T1: human CD73 (full length, on transfected CHOK1 cells) (human, UniProt P21589 27-549)
T1 construct: whole, on cells; also called CHOK1-hCD73; hCD73
T1 sequence (looked up): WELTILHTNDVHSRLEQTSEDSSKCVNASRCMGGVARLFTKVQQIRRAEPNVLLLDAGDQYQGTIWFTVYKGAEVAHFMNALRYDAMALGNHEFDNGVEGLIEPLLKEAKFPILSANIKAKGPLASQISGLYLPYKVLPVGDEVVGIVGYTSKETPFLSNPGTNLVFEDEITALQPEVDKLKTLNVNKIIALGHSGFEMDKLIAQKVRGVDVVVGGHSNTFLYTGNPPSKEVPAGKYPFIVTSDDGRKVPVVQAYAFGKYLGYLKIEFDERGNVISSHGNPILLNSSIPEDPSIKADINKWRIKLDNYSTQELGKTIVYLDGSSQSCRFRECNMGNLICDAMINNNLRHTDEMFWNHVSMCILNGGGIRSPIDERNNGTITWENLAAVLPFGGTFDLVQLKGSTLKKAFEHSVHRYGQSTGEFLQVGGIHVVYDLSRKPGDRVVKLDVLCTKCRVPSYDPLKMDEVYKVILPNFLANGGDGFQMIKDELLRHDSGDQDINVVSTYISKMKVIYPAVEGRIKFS

T2: murine CD73 (on transfected CHOK1 cells) (mouse, UniProt Q61503 29-551)
T2 construct: whole, on cells; also called CHOK1-mCD73; mCD73
T2 sequence (looked up): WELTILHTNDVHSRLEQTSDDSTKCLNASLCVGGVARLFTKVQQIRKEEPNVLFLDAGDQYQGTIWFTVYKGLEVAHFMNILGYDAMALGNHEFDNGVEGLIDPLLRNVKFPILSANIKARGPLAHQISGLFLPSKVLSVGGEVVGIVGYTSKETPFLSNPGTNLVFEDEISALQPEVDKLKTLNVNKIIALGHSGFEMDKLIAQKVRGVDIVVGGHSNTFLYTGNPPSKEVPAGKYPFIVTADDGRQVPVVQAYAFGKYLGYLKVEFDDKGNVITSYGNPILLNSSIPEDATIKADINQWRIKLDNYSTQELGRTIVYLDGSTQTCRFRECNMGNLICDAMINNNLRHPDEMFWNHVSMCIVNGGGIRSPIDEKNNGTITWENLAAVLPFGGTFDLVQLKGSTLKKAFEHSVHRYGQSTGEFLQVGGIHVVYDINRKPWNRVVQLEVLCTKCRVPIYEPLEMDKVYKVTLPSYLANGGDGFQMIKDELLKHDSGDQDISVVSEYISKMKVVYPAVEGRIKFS

T3: cynomolgus monkey CD73 (on transfected CHOK1 cells) (cynomolgus monkey, UniProt A0A2K5V5U7 27-549)
T3 construct: whole, on cells; also called CHOK1-cCD73; CHOK1-CCD73
T3 sequence: T1 sequence (looked up) with M199T, T350A, V466I

B1: mAb036 (clone 66H6C12), murine anti-CD73 antibody (antibody, V domains shown)
VH: QVQLQQSGAEVVKPGASVKISCKASGYVFSSYWINWVKQRPGKGLEWIGKIFPGNGDTDYNGNFKGKATLTADKSSSTAYMQLSSLTSEDSAVYFCAGFADWGQGTLVTVSA
VL: DIQMTQSPSSLSASLGERVSLTCRASQDIGERLIWLQQEPDGTFKRLIYATSSLDSGVPKRFSGSSSGSDYSLTISRLESEDFVDYYCLQYASSPYTFGGGTKLEIK
notes: Purified from hybridoma supernatant
B2: mAb042 (clone 77B9A3), murine anti-CD73 antibody (antibody, V domains shown)
VH: QVQLQQSGAGLVKPGASVKLSCKASGYTFTNYWMHWVKQRPGQGLEWIGMIHPNSGSTNNNEKFKNKATLTVDKSSNTAYMQLSSLTSEDSAVYYCARFFFGGYPHYYALDYWGQGTSVTVSS
VL: DIVMTQSQKFMSTTVGDRVSITCKASQNVGTAVAWYQQKPGQSPKLLIYSASDRYTGVPDRLTGSGSGTDFTLTISNVQSEDLADYFCQQYSSFPLFTFGSGTKLVIQ
notes: as for B1
B3: mAb020 (clone 24D6B4), murine anti-CD73 antibody (antibody, V domains shown)
VH: EVQLQQSGPELVKPGASVKIPCKASGYTFTDYNMDWVKQRHGKSLEWIGDINPNNGGTVYNQKFKGKATLTVDKSSNTAYMELRSLTSEDTAVYYCARISGTGYWYFDVWGTGTTVTVSS
VL: DIQMTQSPASLSVSVGETVTITCRASENIYSNLAWYQQKQGKSPQLLVYGATNLADGVPSRFSGSDSGTQYSLKINSLQSEDFGSYYCQHFWGTPWTFGGGTKLEIK
notes: as for B1
B4: mAb044 (clone 80H7D6), murine anti-CD73 antibody (antibody, V domains shown)
VH: EVKLVESGGGLVQPGGSLRLSCAASGFTFTDYYMSWVRQPPGKALEWLGFIRNKADGSTTEYSASVKGRFTISRDNSQSILYLQMNALRPEDSATYYCTRSPIYFDNWYFDVWGTGTTVTVSS
VL: DIVMSQSPSSLAVSVGEKVTMTCKSSQSLLYSNNQKNYLAWYQQKPGQSPKLLIYWASTRESGVPDRFTGSGSGTDFTLTLSSVKAEDLAVYYCQQYYSYPFTFGSGTKLEIK
notes: as for B1
B5: mAb030 (clone 42A5A7), murine anti-CD73 antibody (antibody, V domains shown)
VH: DIQLQESGPGLVKPSQSLSLTCSVTGYSITSRYYWNWIRQFPGNKLEWMGYITYDDNNNYNPSLKNRISITRDTSKNQFFLKLNSVTPEDTATYYCARGGWDPFLYWGQGTLVTVSA
VL: DIQMTQSPASLSASVGETVTITCRASDNIYSYLAWYQQKQGKSLQLLVDSAKNLGEGVPSRFSGSGSGTQFYLKINSLQPEDFGVYYCQHYYGTPFTFGGGTKLELK
notes: Purified from hybridoma supernatant; also called antibody 030
B6: mAb038 (clone 69C9E12), murine anti-CD73 antibody (antibody, V domains shown)
VH: QVQLQQPGTELVNPGASVKLSCKASGYTFTSYWMHWVKQRPGQGLEWIGNINPSNGGTHYNEKFNNKATLTVDKSSSTAYMQLSSLTSEDSAVFYCARGDYAYDWYFTVWGTGTTVTVSS
VL: DIVLTQSPASLAVSLGQRAIISCKASQSVSFAGTGLMHWYQQKPGQQPKLLIYRVSNLEAGIPTRFSGSGSRTDFTLNIHPVEEDDAATYYCQQNREFPWTFGGGTKLEIK
notes: as for B1
B7: mAb041 (clone 71E10B3), murine anti-CD73 antibody (antibody, V domains shown)
VH: QVQLQQPGTELVKPGASVKLSCKASGYTFTSYWMHWVKQRPGQGLEWIGNINPSNGGTNYNQKFKSKATLTVDKSSNTASMQLSSLTSEDSAVYYCARGDYGYDWYLDVWGTGTTVTVSS
VL: B6 VL with T34P, G35S, V55T, I62V, R72G
notes: as for B1
B8: mAb065 (clone 125A4E10), murine anti-CD73 antibody (antibody, V domains shown)
VH: EVQLQQSGPELVKPGASVKISCKASGYTFTDYYMNWVKQSHGKSLEWIGNINPNNGDTNYNQKFKGKATLTVDKSSSTASMELRSLTSEDSAVYYCANSGYYYFDYWGQGTTLTVSS
VL: DIVMTQSPSSLTVTAGEKVTMSCKSSQSLLNSGNQKNYLTWYQQKPGQPPKVLIYWASTRESGVPDRFTGSGSGTDFTLTISSVQAEDLAVYYCQNDYSYPPTFGGGTNLEIK
notes: as for B1
B9: mAb034 (clone 60G1C8), murine anti-CD73 antibody (antibody, V domains shown)
VH: DVQLQESGPGLVKPSQSLSLTCSVTGYSITSRYYWNWIRQFPGNKLEWMGYMTYDGTNNYNPSLTNRISITRDTSKNQFFLKLNSVTAEDTATYFCARGGWDPFDYWGQGTTLTVSS
VL: DIQMTQSPAALSASVGETVTITCRASDNIYSYLAWYQQKQGKCPQLLVKNAKTLAEGVPSRFSGSGSGTQFSLRINSLQPDDFGTYYCQHYYGTPLTFGAGTKLELK
notes: as for B1

target: T1, human CD73 (full length, on transfected …); assay: FACS on CHOK1-hCD73 cells
Method: The titration binding curve was produced by the following method:
The CHOK1 stable cell line transfected with human CD73 was expanded to a 75-90% confluence in a T-75 cell culture flask. The medium was aspirated, washed 1-2 times with PBS, and then treated with trypsin (Tryple express: Life technology) and cells were collected. The cells were washed with PBS buffer for 1-2 times. After counted, the cells were diluted with PBS to 1-2×10⁶ cells per ml, added with 1% fetal bovine serum (FBS) blocking solution, incubated on ice for 20-30 minutes, and then washed twice with HBSS by centrifugation. The collected cells were suspended with FACS buffer (PBS+2% FBS) to 2×10⁶ cells/ml, added to a 96-well FACS reaction plate at 100 microliters per well, and centrifuged at 300 g for 5 minutes to discard the supernatant. Anti-CD73 antibody was prepared with blocking solution to an initial concentration of 10 ug/ml and serially diluted at 8 points. 100 microliter per well of that antibody sample to be tested were added and incubated at 4° C. for 1-2 hours. […] The plate was washed 2-3 times with FACS buffer by centrifugation, added with 100 μl fixative solution (4% Paraformaldehyde) per well to suspend the cells. 5-10 minutes later, it was washed 1-2 times with FACS buffer by centrifugation. The cells were suspended with 100 microliters of FACS buffer, FACS (FACSCalibur, BD) was used for detection and the results were analyzed, as shown in FIG. 1 and Table 4.

Row | EC50 [nM] | MAX MFI [MFI] | Binder
1 | 0.3 | 5290 | B1
2 | > 10 | 13900 | B2
3 | 1.8 | 7540 | B3
4 | 1.6 | 7540 | B4
5 | 0.9 | 6440 | B5
6 | 0.4 | 5230 | B6
7 | 2.9 | 8160 | B7
8 | 1.1 | 4650 | B8
9 | > 10 | 5820 | B9

target: T2, murine CD73 (on transfected CHOK1 cells); assay: FACS on CHOK1-mCD73 cells

Row | Binder | binding result
10 | B1 | no binding (tested: 10 ug/ml initial concentration)
11 | B2 | no binding (tested: 10 ug/ml initial concentration)
12 | B3 | no binding (tested: 10 ug/ml initial concentration)
13 | B4 | no binding (tested: 10 ug/ml initial concentration)
14 | B5 | no binding (tested: 10 ug/ml initial concentration)
15 | B6 | no binding (tested: 10 ug/ml initial concentration)
16 | B7 | no binding (tested: 10 ug/ml initial concentration)
17 | B8 | no binding (tested: 10 ug/ml initial concentration)
18 | B9 | no binding (tested: 10 ug/ml initial concentration)

target: T3, cynomolgus monkey CD73 (on transfected …); assay: FACS on CHOK1-cCD73 cells

Row | EC50 [nM] | MAX MFI [MFI] | Binder
19 | 0.9 | 7490 | B1
20 | 3.9 | 8770 | B2
21 | 3.4 | 9960 | B3
22 | 3.4 | 12300 | B4
23 | 0.4 | 6310 | B5
24 | 0.3 | 7400 | B6
25 | 1.9 | 9570 | B7
26 | 2.5 | 3250 | B8
27 | 0.2 | 3210 | B9

target: T1, human CD73 (full length, on transfected …); assay: cell-based or functional assay

Row | Enzyme activity blocking assay, IC50 [nM] | Enzyme activity blocking assay, MAX % inhibition [%] | Binder
28 | 0.2 | 72.3 | B1
29 | 0.1 | 47.9 | B2
30 | 0.1 | 63 | B3
31 | 0.5 | 53.5 | B4
32 | 0.1 | 74.6 | B5
33 | 1 | 53.3 | B6
34 | 4 | 35.7 | B7
35 | 0.3 | 56.4 | B8
36 | 0.1 | 73.7 | B9

From patent US20220098319A1 (SHANGHAI PHARMAEXPLORER, published 2022)
